Patent publication US20230287082A1 (published 2023)
Residue numbers refer to the chain shown, from its start. Values belong to the binder of their own block, whether it stands above or below them.

Tests used:
[1] = target: NKp30 on human NK cells (human) (UniProt O14931); experiment: cell-based or functional assay
[2] = target: human NKp30 (human) (UniProt O14931); experiment: BLI, ratio to ΔB7-H6_wt
[3] = target: human NKp30 (human) (UniProt O14931); experiment: BLI, immunoligand on anti-hFc tip

Chain of human NKp30 (human) (O14931 19-135 limits assumed): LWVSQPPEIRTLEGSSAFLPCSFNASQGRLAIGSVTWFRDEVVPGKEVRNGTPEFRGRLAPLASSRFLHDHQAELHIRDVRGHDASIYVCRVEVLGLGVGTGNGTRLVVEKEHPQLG
Chain of NKp30 on human NK cells (human) (O14931 19-201): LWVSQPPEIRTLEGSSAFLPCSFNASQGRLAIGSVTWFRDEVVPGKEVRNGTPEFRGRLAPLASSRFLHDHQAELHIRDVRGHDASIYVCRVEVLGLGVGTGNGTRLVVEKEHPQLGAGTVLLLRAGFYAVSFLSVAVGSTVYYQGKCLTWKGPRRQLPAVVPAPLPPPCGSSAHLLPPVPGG

EC50 (pM), A431 lysis with PBMC [1]: 240 pM
EC50 improvement compared to ΔB7-H6 wt [1]: 4 fold
KD improvement compared to ΔB7-H6 wt [2]: 2.8 fold
x-fold KD improvement [2]: 2.8 fold
x-fold Koff improvement [2]: 1.7 fold
Kd [3]: 146 nM
koff [3]: 0.0981 s⁻¹
kon [3]: 673000 M⁻¹ s⁻¹
B1: ΔB7-H6_S3#19-SEED-PGLALA (bispecific antibody, part only; not given: SEED Fc chains and hu225 Fab, part only)
chain, part: DLKVEMMAGGTQITPLNDNVTIFCNIFYSQPLNITQMGITWFWKSLTFDKEVKVFEFWGDHQEAFRPGAIVSPWRLKSGDASLRLPGIQLEEAGEYRCEVVVTPYKAQGTVQLEVVASPAS

EC50 (pM), A431 lysis with PBMC [1]: 176 pM
EC50 improvement compared to ΔB7-H6 wt [1]: 5 fold
KD improvement compared to ΔB7-H6 wt [2]: 3.3 fold
x-fold KD improvement [2]: 3.3 fold
x-fold Koff improvement [2]: 2.2 fold
Kd [3]: 125 nM
koff [3]: 0.0776 s⁻¹
kon [3]: 622000 M⁻¹ s⁻¹
B2: ΔB7-H6_S3#30-SEED-PGLALA (bispecific antibody, part only; not given: SEED Fc chains and hu225 Fab, part only)
chain, part: B1 chain, part with Q36E, V101I, Y105L

EC50 (pM), A431 lysis with PBMC [1]: 427 pM
EC50 improvement compared to ΔB7-H6 wt [1]: 2 fold
KD improvement compared to ΔB7-H6 wt [2]: 6.9 fold
x-fold KD improvement [2]: 6.9 fold
x-fold Koff improvement [2]: 2.9 fold
Kd [3]: 59.1 nM
koff [3]: 0.0573 s⁻¹
kon [3]: 969000 M⁻¹ s⁻¹
B3: ΔB7-H6_S3#17-SEED-PGLALA (bispecific antibody, part only; not given: SEED Fc chains and hu225 EGFR Fab, part only)
chain, part: B1 chain, part with Q36S, W58Y, V101F, Y105L

EC50 (pM), A431 lysis with PBMC [1]: 36.1 pM
EC50 improvement compared to ΔB7-H6 wt [1]: 24 fold
KD improvement compared to ΔB7-H6 wt [2]: 22.8 fold
x-fold KD improvement [2]: 22.8 fold
x-fold Koff improvement [2]: 8 fold
Kd [3]: 17.9 nM
koff [3]: 0.0211 s⁻¹
kon [3]: 1.18e+06 M⁻¹ s⁻¹
B4: ΔB7-H6_S3#21-SEED-PGLALA (bispecific antibody, part only; not given: SEED Fc chains and hu225 Fab, part only)
chain, part: B1 chain, part with Q36L

A431 EC50 with PBMC (pM) [1]: 33.6 pM
A549 EC50 with PBMC (pM) [1]: 172 pM
EC50 (pM), A431 lysis with PBMC [1]: 7.6 pM
EC50 improvement compared to ΔB7-H6 wt [1]: 114 fold
KD improvement compared to ΔB7-H6 wt [2]: 16.5 fold
x-fold KD improvement [2]: 16.5 fold
x-fold Koff improvement [2]: 9.6 fold
Kd [3]: 24.8 nM
koff [3]: 0.0175 s⁻¹
kon [3]: 705000 M⁻¹ s⁻¹
B9: ΔB7-H6_S3#29-SEED-PGLALA (bispecific antibody, part only; not given: SEED Fc chains and hu225 EGFR Fab, part only)
chain, part: B1 chain, part with Q36V, V101I

EC50 (pM), A431 lysis with PBMC [1]: 65.8 pM
EC50 improvement compared to ΔB7-H6 wt [1]: 13 fold
KD improvement compared to ΔB7-H6 wt [2]: 10.5 fold
x-fold KD improvement [2]: 10.5 fold
x-fold Koff improvement [2]: 3.9 fold
Kd [3]: 39.1 nM
koff [3]: 0.0432 s⁻¹
kon [3]: 1.11e+06 M⁻¹ s⁻¹
B12: ΔB7-H6_S3#11-SEED-PGLALA (bispecific antibody, part only; not given: SEED Fc chains and hu225 Fab, part only)
chain, part: B1 chain, part with Q36L, V101I, Y105F

The next lines start with the binder.

B5: ΔB7-H6_S3#7-SEED-PGLALA (bispecific antibody, part only; not given: SEED Fc chains and hu225 Fab, part only)
chain, part: B1 chain, part with Q36H, W58Y
EC50 (pM), A431 lysis with PBMC [1]: 45.4 pM
EC50 improvement compared to ΔB7-H6 wt [1]: 19 fold
KD improvement compared to ΔB7-H6 wt [2]: 3.7 fold
x-fold KD improvement [2]: 3.7 fold
x-fold Koff improvement [2]: 3.2 fold
Kd [3]: 110 nM
koff [3]: 0.0525 s⁻¹
kon [3]: 478000 M⁻¹ s⁻¹

B6: ΔB7-H6_S3#1-SEED-PGLALA (bispecific antibody, part only; not given: SEED Fc chains and hu225 EGFR Fab, part only)
chain, part: B1 chain, part with Q36T
EC50 (pM), A431 lysis with PBMC [1]: 61.1 pM
EC50 improvement compared to ΔB7-H6 wt [1]: 14 fold
KD improvement compared to ΔB7-H6 wt [2]: 10.5 fold
x-fold KD improvement [2]: 10.5 fold
x-fold Koff improvement [2]: 5.7 fold
Kd [3]: 39.1 nM
koff [3]: 0.0295 s⁻¹
kon [3]: 754000 M⁻¹ s⁻¹

B7: ΔB7-H6_S2#3-SEED-PGLALA (bispecific antibody, part only; not given: SEED Fc chains and hu225 Fab, part only)
chain, part: B1 chain, part with Q36T, Y105L
EC50 (pM), A431 lysis with PBMC [1]: 175 pM
EC50 improvement compared to ΔB7-H6 wt [1]: 5 fold
KD improvement compared to ΔB7-H6 wt [2]: 2.1 fold
x-fold KD improvement [2]: 2.1 fold
x-fold Koff improvement [2]: 1.6 fold
Kd [3]: 194 nM
koff [3]: 0.106 s⁻¹
kon [3]: 546000 M⁻¹ s⁻¹

B8: ΔB7-H6_S3#8-SEED-PGLALA (bispecific antibody, part only; not given: SEED Fc chains and hu225 EGFR Fab, part only)
chain, part: B1 chain, part with Q36H, V101I, Y105L
EC50 (pM), A431 lysis with PBMC [1]: 43.7 pM
EC50 improvement compared to ΔB7-H6 wt [1]: 20 fold
KD improvement compared to ΔB7-H6 wt [2]: 5.1 fold
x-fold KD improvement [2]: 5.1 fold
x-fold Koff improvement [2]: 3.7 fold
Kd [3]: 80.7 nM
koff [3]: 0.0455 s⁻¹
kon [3]: 564000 M⁻¹ s⁻¹

B10: ΔB7-H6_S3#10-SEED-PGLALA (bispecific antibody, part only; not given: SEED Fc chains and hu225 Fab, part only)
chain, part: B1 chain, part with Q36S, W58Y, V101F
EC50 (pM), A431 lysis with PBMC [1]: 85 pM
EC50 improvement compared to ΔB7-H6 wt [1]: 10 fold
KD improvement compared to ΔB7-H6 wt [2]: 2.8 fold
x-fold KD improvement [2]: 2.8 fold
x-fold Koff improvement [2]: 1.7 fold
Kd [3]: 145 nM
koff [3]: 0.0998 s⁻¹
kon [3]: 689000 M⁻¹ s⁻¹

B11: ΔB7-H6_S2#1-SEED-PGLALA (bispecific antibody, part only; not given: SEED Fc chains and hu225 EGFR Fab, part only)
chain, part: B1 chain, part with Q36S, W58Y
EC50 (pM), A431 lysis with PBMC [1]: 140 pM
EC50 improvement compared to ΔB7-H6 wt [1]: 6 fold
KD improvement compared to ΔB7-H6 wt [2]: 2 fold
x-fold KD improvement [2]: 2 fold
x-fold Koff improvement [2]: 2.2 fold
Kd [3]: 205 nM
koff [3]: 0.078 s⁻¹
kon [3]: 380000 M⁻¹ s⁻¹
